From patent US20220227882A1 (TRUSTEES OF TUFTS COLLEGE, published 2022)
Substitutions are numbered along the chain they refer to.

T1: E444A (Homo sapiens, UniProt P78325)
T1 construct: expressed on HEK293 cells; also called human ADAM8 point mutant E444A
T1 sequence (ADAM8, looked up): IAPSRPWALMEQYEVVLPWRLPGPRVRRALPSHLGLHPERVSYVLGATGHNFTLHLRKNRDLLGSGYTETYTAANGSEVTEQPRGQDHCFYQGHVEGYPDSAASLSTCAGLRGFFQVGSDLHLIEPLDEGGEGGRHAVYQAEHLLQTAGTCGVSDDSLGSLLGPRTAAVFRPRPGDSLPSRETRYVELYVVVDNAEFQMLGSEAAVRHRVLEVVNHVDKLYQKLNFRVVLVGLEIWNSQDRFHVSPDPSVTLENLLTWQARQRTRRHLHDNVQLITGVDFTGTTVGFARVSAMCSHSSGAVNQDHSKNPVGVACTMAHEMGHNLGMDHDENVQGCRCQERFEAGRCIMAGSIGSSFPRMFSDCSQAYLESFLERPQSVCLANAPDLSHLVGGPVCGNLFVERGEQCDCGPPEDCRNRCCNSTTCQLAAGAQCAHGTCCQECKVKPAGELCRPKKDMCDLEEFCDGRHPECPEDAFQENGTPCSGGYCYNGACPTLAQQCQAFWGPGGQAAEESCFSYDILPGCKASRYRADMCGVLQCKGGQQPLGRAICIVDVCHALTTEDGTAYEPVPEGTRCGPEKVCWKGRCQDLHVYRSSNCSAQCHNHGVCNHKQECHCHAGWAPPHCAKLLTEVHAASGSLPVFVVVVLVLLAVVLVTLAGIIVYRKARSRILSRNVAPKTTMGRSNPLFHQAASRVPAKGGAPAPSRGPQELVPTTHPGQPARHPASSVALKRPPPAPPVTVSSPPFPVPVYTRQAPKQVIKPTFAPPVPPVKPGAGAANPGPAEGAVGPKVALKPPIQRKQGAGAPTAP

T2: A462S (Homo sapiens, UniProt P78325)
T2 construct: expressed on HEK293 cells; also called human ADAM8 point mutant A462S
T2 sequence (ADAM8, looked up): T1 sequence (ADAM8, looked up) with A428E, A446S

B1: ADP2 Fab (Fab, V domains shown)
VH: EVKLVESGGGLVQPGGSLSLSCAASGFSFPDYYMSWVRQPPGKALEWLGFIRDSANGYTTEYIASVKGRFTFSRDNSQSILYLQMNALRAEDSATYYCARYSRYYGMDYWGQGTSVTVSS
VL: SIVMTQTPKILLVSAGDRVTITCKASQTVNYDVAWYQQKPGQSPKPVIYFASNRYTGVPDRFTGSGFGTDFTFTISTVQAEDLAVYFCQQDYSAPWTFGGGTKLEIK
B2: ADP13 Fab (Fab, V domains shown)
VH: EVQLQQSGPEMVKPGTSVKISCKASGYTFTDYYINWVKQSHGKSLEWIGDISPNIGGATYNPKFKGKAILTVDKSARTAYMELRSLTSEDSAVYCCTRGGSSYPYFYAMDYWGQGTSVTVSS
VL: DIVMSQSPSSLAVSVGEKVTMSCKSSQSLLYSSNQKKYLAWYQQKPGQSPKLLIYWASTRESGVPDRFTGSGSGTDFTLTISSVKAEDLAVYYCQQFYSYPYTFGGGTKLEINR

Assays:
E444A = target: T1, E444A; assay: high-throughput flow cytometry, HEK293 cells with mutant ADAM8, high stringency; range in parentheses; closed box
Description: (§1) A variety of experimental parameters were optimized for high-throughput flow cytometry including blocking buffer, and primary and secondary antibody concentrations, to identify the optimal conditions for screening. Through these studies ADP2 and ADP13 were determined to be high affinity binding antibodies.
(§2) Thus, for these studies antigen-binding fragments (Fabs) of ADP2 and ADP13, which bind with lower affinity than the full antibody, were generated. In addition, higher binding stringency conditions were tested, such as increased pH, salinity, and temperature, and/or increased washing, to weaken binding sufficiently to allow identification of critical binding residues in flow cytometry. The final experimental flow cytometry conditions were: primary antibody incubation with ADP2 Fab (0.50 μg/ml), ADP13 Fab (5.00 μg/ml) and Control Ab (0.16 μg/ml) for 60 minutes in flow cytometry buffer containing 10% goat serum in PBS (Ca²⁺ and Mg²⁺ free). […] Samples were washed three times after primary antibody incubation and twice after secondary antibody incubation with PBS (Ca²⁺ and Mg′ free). Next, HEK293 cells expressing WT or mutated ADAM8 proteins or EV DNA were incubated with ADP2 or ADP13 Fabs or Control Ab at their optimal concentrations. Fab binding was detected using Alexa Fluor 488-conjugated secondary antibodies and mean cellular fluorescence determined using the Intellicyt iQue flow cytometry platform. […] This counter-screen strategy facilitates the exclusion of mutants that are locally misfolded or that have an expression defect. Binding of each test Fab to each mutant clone in the alanine scanning library was determined, in duplicate, by high-throughput flow cytometry.

A462S = target: T2, A462S; assay: high-throughput flow cytometry, HEK293 cells with mutant ADAM8, high stringency; range in parentheses; dotted box
Description: as §1, §2

Binder | Binding Reactivity (% WT) (E444A) | Binding Reactivity (% WT) (A462S)
B1 | 17.6 | 
B2 |  | 24.7
